The supplement of paper PMC10567573

B1: CDC34 (parent)
chain: GGYFKARLKFPIDYPYSPPAFRFL

Variants of: B1
Test: protein stability index of a GFP-peptide fusion (GPS, HEK-293T) (PSI 1-6); higher = more stable
Conditions: c terminus: a fixed tail appended
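Further: lentivirally expressed fusions sorted by FACS into six bins by GFP to DsRed ratio, PSI derived from sequencing read proportions per bin multiplied by bin number.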

Protein stability index, by site and new letter:
A6: W 3.16, G 3.12, F 3.63, V 2.15, E 2.33, K 3.08, S 2.47, Q 1.71, I 1.94, M 3.74, P 2.13, Y 3.56, L 2.36, N 3.51, H 3.08, T 2.76, R 3.77, D 2.1
Y3: R 3.15, L 2.32, A 2.68, I 2.63, Q 3.35, K 3.54, W 2.33, N 2.44, C 3.72, F 1.77, E 1.29, H 3.02, S 1.54, G 1.63, V 2.61, P 3.03, T 2.39, M 2.46
G2: I 3.05, S 2.18, D 2.29, F 2.03, C 2.22, K 1.9, H 3.54, T 3.26, P 3.31, M 2.92, A 3.13, Q 2.77, W 2.23, Y 3, N 2.68, E 1.94, V 3.03, L 2.2
P19: H 2.67, S 2.64, W 3.02, T 3.29, I 2.56, Q 2.55, D 2.21, V 2.35, N 3.27, C 3.03, E 2.21, R 3.69, M 3.23, F 2.96, L 3.41, A 2.29, K 2.99, Y 4.32
G1: T 3.19, P 2.61, I 3.18, E 1.58, A 2.86, W 2.88, C 2.8, Q 2.39, S 3.14, F 2.55, Y 2.68, M 3.53, H 2.91, D 1.94, N 3.03, K 2.88, V 2.45, R 2.45
L8: R 1.25, G 3.75, Q 2.35, Y 1.53, C 2.65, K 2.48, M 3.8, H 2.54, S 2.89, W 2.65, P 2.19, V 2.53, F 3.29, D 2.24, A 2.66, E 2.3, I 3.42
I12: C 2.64, E 2.83, K 2.61, N 2.22, W 2.12, R 1.7, M 1.39, Y 3.17, L 2.49, V 1.8, G 3.83, S 3.06, F 3.1
K5: A 2.24, H 2.61, I 2.76, T 2.69, Q 3.03, D 2.63, M 3.16, N 2.89, P 1.98, R 2.71, S 3.33, F 3.5, C 2.85, V 3.61, E 2.79
K9: P 2.57, Q 2.55, I 3.15, T 2.11, R 3.6, L 3.67, G 2.29, M 1.82, F 3.11, H 3.05, A 2.74, D 2.43, Y 3.41, N 2.39, S 3.19, W 2.66, E 3.56
R7: Q 1.72, S 2.3, K 3.83, E 2.77, L 2.38, D 1.96, I 2.78, M 2.51, V 3.25, H 3.7, W 3.18, N 2.57, G 2.45, A 1.8, C 2.9
P11: M 3.98, K 2.13, W 2.87, A 2.77, S 3.37, L 4.07, Y 3.2, T 2.28, D 2.06, G 2.07, I 2.84, N 3.45, E 2.75, R 2.99, C 3.95
D13: S 2.34, L 3.38, T 2.82, K 3.03, I 3.04, H 3.16, W 2.7, Q 2.73, N 2.64, F 3.1, M 1.68, V 3.06, E 1.97, G 4.23, R 3.03, C 2.51, A 3.56
F4: E 2.79, C 3.82, Q 1.75, S 3.07, H 1.96, P 1.54, A 2.97, T 1.94, N 2.72, V 3.17, L 3.57, D 2, K 3.11, R 2.76, Y 2.38, W 1.73, M 2.51
F10: Q 1.76, W 3.49, M 2.53, H 3.49, R 2.94, D 3.29, V 2.97, S 3.88, Y 2.87, G 2.75, E 2.66, N 3.08, I 2.44, C 2.89
P18: H 2.33, F 2.42, Y 2.48, G 2.4, S 3.15, Q 3.79, A 2.96, M 2.19, N 2.51, C 3.4, D 2.34, E 2.34, W 2.38, K 3.31, L 2.54
Y14: G 1.88, V 2.7, K 2.75, E 2.06, S 4.54, Q 1.82, L 2.75, I 2.16, M 2.8, D 3.03, C 2.57, N 2.47, R 2.09
S17: R 3.12, F 2.93, K 3.04, E 3.71, M 2.9, G 2.85, V 4.24, W 2.82, N 3.85, D 2.77, I 3.04, Q 2.58, H 3.25, Y 2.44
F21: Q 3.14, N 1.88, R 2.82, K 2.16, A 2.57, D 2.34, C 2.55, S 1.54, M 2.15, E 1.65, G 3.19, I 2.48
A20: G 2.29, F 3.14, K 3.03, C 1.71, T 2.95, R 3.03, E 3.68, S 2.54, D 2.18, Q 2.41, M 3.57, L 2.52, V 2.96, H 3.05, I 3.02, W 2.98
P15: W 2.9, N 2.31, C 3.05, M 3.04, V 2.21, D 3.29, A 3.19, S 3.76, G 2.62, E 2.84, T 2.51, H 3.92, F 3.14, L 2.92, Y 2.56, I 2.75, Q 2.06
Y16: W 2.43, R 2.6, C 2.73, E 2.23, A 2.38, H 3.2, L 2.18, G 2.83, K 3.31, V 3.55, N 2.71, M 1.99, D 1.57, I 3.09, T 2.81, S 2.6, F 2.86
